Data: paper doi:10.1101/2024.01.24.577129, “IgG hexamers initiate acute lung injury” (bioRxiv, 2024)

Key:
[1] = target: T1, K^d MHC class I monomer presenting VYLKTNVFL (Mus musculus, H-2d haplotype (K^d), UniProt P01902;P01887)
T1 chain 1: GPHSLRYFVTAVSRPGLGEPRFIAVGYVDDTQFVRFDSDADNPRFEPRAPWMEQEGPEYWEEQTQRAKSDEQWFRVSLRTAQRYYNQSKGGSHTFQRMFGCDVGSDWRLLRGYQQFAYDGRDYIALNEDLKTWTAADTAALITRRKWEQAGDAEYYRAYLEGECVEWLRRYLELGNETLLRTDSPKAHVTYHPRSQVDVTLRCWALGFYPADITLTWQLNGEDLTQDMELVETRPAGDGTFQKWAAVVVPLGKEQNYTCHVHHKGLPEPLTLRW
T1 chain 2: not shown
T1 chain 3: VYLKTNVFL

[2] = target: T2, K^b MHC class I monomer presenting SIINFEKL (Mus musculus, H-2b haplotype (K^b), UniProt P01901;P01887); test: SPR; monoclonal antibody bound via amine coupling to SensEye G Easy2Spot sensors; serial dilutions (0.5-200 nM) of MHC class I monomers injected; triplicate; IBIS MX96 SPR imager; details: both partners purified
T2 construct: Commercial MHC class I monomer; also called H-2K^b; MBL International TB-5001-M; copies: + +

[3] = target: T3, D^b MHC class I monomer presenting … (Mus musculus, H-2b haplotype (D^b), UniProt P01899;P01887); test: as above; details: both partners purified
T3 construct: Commercial MHC class I monomer; also called H-2D^b; MBL International TB-5008-M; copies: + +

B1: Kd1 (antibody, V domains shown)
VH: EVLLVESGGDLVKPGGSLKLSCAASGFTFRTYAMSWVRQTPEKRLEWVATIGDDGSYTFYPDNVKGRFTISRDNAKNNLYLQMRHLKSEDTAIYFCARDGLFAYWGQGTLVTVSA
VL: DIQMTQSPSSLSASLGGKVTITCKASQDIKKNIAWYQYKPGKGPRLLIHYTSTLQPGISSRFSGSGSGRDYSFSISNLEPEDIATYYCLQYDSLLYTFGGGTKLEIK
Q: Does B1 bind [1]?
A: binds

B2: 34-1-2S antibody (antibody, V domains shown)
VH: EVQLQQSGAEFVRPGASVKLSCTASGFNLKDDYMFWVKQRPEQGLEWIGWIAPDNGDTEYASKFQGKATITADTSSNTAYVQLSSLTSEDTAVYYCTTWGYYSYVNYWGQGTTLTVSS
VL: DIQMTQSPSSLSASLGERVSLTCRASQDIGSNLNWLQQEPDGTIKRLIYATYSLDSGVPKRFSGSRSGSDYSLTISSLESEDFVDYYCLQYASSPYTFGGGTKLEIK
notes: heavy chain variable region of 34-1-2S; mouse IgG2a heavy chain constant region; the class follows from the mIgG2a isotype control and the mIgG2a model; light chain variable region of 34-1-2S; light chain constant region of the mouse antibody; Mouse IgG2a monoclonal antibody; also called clone 34-1-2S; MHC class I alloantibody 34-1-2S; source: bought: BioXCell Cat# BE0180 (stated for the injury …)
Q: Does B2 bind [2]?
A: binds

Q: Does B2 bind [3]?
A: no binding (tested: 0.5-200 nM)
